Test in all cases: UV peptide exchange + HLA class I ELISA
Experiment [1] concerns the target HLA-A*11:01 (human).
Experiment [2] concerns the target HLA-A*24:02 (human).
Experiment [3] concerns the target HLA-A*01:01 (human). To be noted: remark: other sources report otherwise.
The target in experiment [4] is HLA-A*03:01 (human).
Experiment [5] addresses HLA-B*08:01 (human). The conditions noted are these: remark: other sources report otherwise.
Experiment [6] concerns the target HLA-B*07:02 (human).
For experiment [7], the target named is HLA-A*02:01 (human).
Where [8] appears, read: remark: other sources report otherwise.

Read-outs that look alike come from different tables or passages of the source.

B1: x104-113 (peptide)
peptide: STTDLEAYFK
modifications: not checked
On to B1, for which, in experiment [1] (setting [8]), the Bindings% (of positive control) stood at 98.7%.

B2: p167-175 (peptide)
peptide: SFCGSPYSW
modifications: not checked
As to B2, the Bindings% (of positive control) in experiment [2] is 84%.

B3: x103-111 (peptide)
peptide: MSTTDLEAY
modifications: not checked
Regarding B3, the Bindings% (of positive control) in experiment [3] came out at 30.2%.

B4: p650-658 (peptide)
peptide: GYPALMPLY
modifications: not checked
For B4, the Bindings% (of positive control) in experiment [2] is 42.7%.

B5: p829-837 (peptide)
peptide: RVHFASPLH
modifications: not checked
Regarding B5, the Bindings% (of positive control) came out at 68.8% in experiment [4] and 39.5% in experiment [1].

B6: x92-100 (peptide)
peptide: VLHKRTLGL
modifications: not checked
In the case of B6, the Bindings% (of positive control) in experiment [5] worked out at 60.8%.

B7: x52-60 (peptide)
peptide: HLSLRGLPV
modifications: not checked
On to B7, for which, in experiment [5], the Bindings% (of positive control) turned out to be 79.8%.

B8: x58-66 (peptide)
peptide: LPVCAFSSA
modifications: not checked
With B8, the Bindings% (of positive control) in experiment [6] (setting [8]) was 52.8%.

B9: x67-75 (peptide)
peptide: GPCALRFTS
modifications: not checked
Consider B9, for which the Bindings% (of positive control) in experiment [6] is 26.9%.

B10: x105-113 (peptide)
peptide: TTDLEAYFK
modifications: not checked
As to B10, the Bindings% (of positive control) in experiment [3] was 41.7%.

B11: p407-415 (peptide)
peptide: FAVPNLQSL
modifications: not checked
On to B11, for which, in experiment [7], the Bindings% (of positive control) came out at 33.3%.

B12: p124-133 (peptide)
peptide: PLDKGIKPYY
modifications: not checked
On to B12, for which the Bindings% (of positive control) in experiment [3] is 26.7%.

B13: p697-706 (peptide)
peptide: VFADATPTGW
modifications: not checked
In the case of B13, the Bindings% (of positive control) in experiment [2] is 40.4%.

B14: p404-412 (peptide)
peptide: WPKFAVPNL
modifications: not checked
For B14, in experiment [6] (setting [8]), the Bindings% (of positive control) is 70.5%.

B15: p649-658 (peptide)
peptide: CGYPALMPLY
modifications: not checked
As for B15, the Bindings% (of positive control) in experiment [2] turned out to be 38.1%.

B16: p723-731 (peptide)
peptide: LPIHTAELL
modifications: not checked
Take B16: in experiment [6] (setting [8]), the Bindings% (of positive control) was found to be 32.3%.

B17: x15-23 (peptide)
peptide: VLCLRPVGA
modifications: not checked
With B17, the Bindings% (of positive control) in experiment [7] (setting [8]) came out at 31.7%.
